Laboratory results: patent publication US20240024475A1 (CURE GENETICS, published 2024)

T1: recombinant human CD70 protein (Acrobiosystems: CDL-H82Q9) (human, UniProt P32970 39-193)
T1 construct: Bought from Acrobiosystems; The whole natural entry is named; also called human CD70His fusion protein; recombinant human CD70 antigen having a C-terminal human IgG Fc tag
T1 sequence (looked up): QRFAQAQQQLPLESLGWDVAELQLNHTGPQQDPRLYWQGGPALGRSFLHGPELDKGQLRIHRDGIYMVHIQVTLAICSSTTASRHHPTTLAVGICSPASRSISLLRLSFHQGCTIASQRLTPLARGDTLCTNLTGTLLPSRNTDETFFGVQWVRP


Biological target: T1, recombinant human CD70 protein …
Assay: flow cytometry: CAR on CD70-knockout T cells stained with biotinylated human CD70 protein (100 µg/ml) and PE-Streptavidin
Experimental: The expression of the CAR targeting CD70 prepared in example 5 in T cells in each group was detected by fluorescence antibody staining and flow cytometry. The specific steps were as follows: CAR-T cells targeting CD70 with lentivirus infection for 48 h, T cells without lentivirus infection and T-KO cells without lentivirus infection were respectively collected by centrifugation; biotinylated human CD70 protein (100 μg/ml) (Acrobiosystems: CDL-H82Q9) was added; and the mixture was incubated at 4° C. in the dark for 30 min, and then washed once with PBS after the incubation. After resuspending in an appropriate volume of PBS, a second antibody PE-Streptavidin (BD Biosciences: 554061) was added to the cells, and the mixture was incubated at 4° C. in the dark for 20 min, washed once with PBS and then resuspended in an appropriate volume of PBS. Finally, the expression efficiency of the CAR targeting CD70 on the surface of the T cells in which CD70 was knocked out was detected using a flow cytometer.

Binder | POS (% of cells in the CD70-PE positive gate) [%]
CD70KO-CAR-5A (receptor, The sheet names the CD70-knockout T cells that carry CD70-CAR-5A; also called CD70-CAR-5A) chimeric antigen receptor chain: EVQLVESGGGLVQAGGSLRLSCAASESIFNNYVMAWYRQPPGKQREAVAQISTDGSAYYQDRVKGRFTISRDNAKNLVNLQMSSLKPEDTAVYYCTAGLQYWGQGTQVTVSSTTTPAPRPPTPAPTIASQPLSLRPEACRPAAGGAVHTRGLDFACDIYIWAPLAGTCGVLLLSLVITLYCKRGRKKLLYIFKQPFMRPVQTTQEEDGCSCRFPEEEEGGCELRVKFSRSADAPAYKQGQNQLYNELNLGRREEYDVLDKRRGRDPEMGGKPRRKNPQEGLYNELQKDKMAEAYSEIGMKGERRRGKGHDGLYQGLSTATKDTYDALHMQALPPR | 74.9
CD70KO-CAR-7D (receptor, The sheet names the CD70-knockout T cells that carry CD70-CAR-7D; also called CD70-CAR-7D) chimeric antigen receptor chain: EVQLVESGGGLVQAGGSLRLSCAASGFTFDDYAIGWFRQAPGKEQEGVSCIRRSDGSTWYANSVKGRFTISNDNAKNTVYLQMNSLKPEDTAVYYCAVDRYGQSWHEGRGALDAWGQGTLVTVSSTTTPAPRPPTPAPTIASQPLSLRPEACRPAAGGAVHTRGLDFACDIYIWAPLAGTCGVLLLSLVITLYCKRGRKKLLYIFKQPFMRPVQTTQEEDGCSCRFPEEEEGGCELRVKFSRSADAPAYKQGQNQLYNELNLGRREEYDVLDKRRGRDPEMGGKPRRKNPQEGLYNELQKDKMAEAYSEIGMKGERRRGKGHDGLYQGLSTATKDTYDALHMQALPPR | 78.4
CD70KO-CAR-1E (receptor, The sheet names the CD70-knockout T cells that carry CD70-CAR-1E; also called CD70-CAR-1E) chimeric antigen receptor chain: EVQVVESGGGLVQAGGSLRLSCAASGFAFDDYAIGWFRQAPGKEQERVSCMSSSDGSTYYADSVKGRFTISSDNAKNTVYLQMNSLKPEDTAVYYCAAGVNYYREDGCPGALDYWGQGTQVTVSSTTTPAPRPPTPAPTIASQPLSLRPEACRPAAGGAVHTRGLDFACDIYIWAPLAGTCGVLLLSLVITLYCKRGRKKLLYIFKQPFMRPVQTTQEEDGCSCRFPEEEEGGCELRVKFSRSADAPAYKQGQNQLYNELNLGRREEYDVLDKRRGRDPEMGGKPRRKNPQEGLYNELQKDKMAEAYSEIGMKGERRRGKGHDGLYQGLSTATKDTYDALHMQALPPR | 63.9
CD70KO-CAR-L2 (receptor, The sheet names the CD70-knockout T cells that carry CD70-CAR-L2; also called CD70-CAR-L2) chimeric antigen receptor chain: EVQLVESGGGLVQAGGSLRLSCAASGFTVDDYVIGWFRQAPGKEHEGVSCISSNDGSTWYADSVKGRFTISSDNAKNTMYLQMNSLKPEDTAVYYCAAKYAPYGLEYWEGGMDYWGKGTLVTVSSTTTPAPRPPTPAPTIASQPLSLRPEACRPAAGGAVHTRGLDFACDIYIWAPLAGTCGVLLLSLVITLYCKRGRKKLLYIFKQPFMRPVQTTQEEDGCSCRFPEEEEGGCELRVKFSRSADAPAYKQGQNQLYNELNLGRREEYDVLDKRRGRDPEMGGKPRRKNPQEGLYNELQKDKMAEAYSEIGMKGERRRGKGHDGLYQGLSTATKDTYDALHMQALPPR | 62.6
CD70KO-CAR-3H (receptor, The sheet names the CD70-knockout T cells that carry CD70-CAR-3H; also called CD70-CAR-3H) chimeric antigen receptor chain: QLQLVESGGGLVQPGGSLRLSCAASGNILRFNAVGWYRQAPGKQRDLVAAMAGARTNYADSVEGRFTISGNNANNTVYLQMNSLKPEDTGVYYCGADRVYGPPYEYGGRGTQVTVLSTTTPAPRPPTPAPTIASQPLSLRPEACRPAAGGAVHTRGLDFACDIYIWAPLAGTCGVLLLSLVITLYCKRGRKKLLYIFKQPFMRPVQTTQEEDGCSCRFPEEEEGGCELRVKFSRSADAPAYKQGQNQLYNELNLGRREEYDVLDKRRGRDPEMGGKPRRKNPQEGLYNELQKDKMAEAYSEIGMKGERRRGKGHDGLYQGLSTATKDTYDALHMQALPPR | 70.8
CD70KO-CAR-1G (receptor, The sheet names the CD70-knockout T cells that carry CD70-CAR-1G; also called CD70-CAR-1G) chimeric antigen receptor chain: QLQLVESGGGLVQLGGSLTLSCTASGIIFNSDYVGWYRQAPGSDRELVALTSNMRTNYADSVEGRFTISRDNAKNTVYLQMNSLKPEDTAVYYCNVNRMTSYGPRDYWGQGTQVTVSSTTTPAPRPPTPAPTIASQPLSLRPEACRPAAGGAVHTRGLDFACDIYIWAPLAGTCGVLLLSLVITLYCKRGRKKLLYIFKQPFMRPVQTTQEEDGCSCRFPEEEEGGCELRVKFSRSADAPAYKQGQNQLYNELNLGRREEYDVLDKRRGRDPEMGGKPRRKNPQEGLYNELQKDKMAEAYSEIGMKGERRRGKGHDGLYQGLSTATKDTYDALHMQALPPR | 57.5
CD70KO-CAR-5B (receptor, The sheet names the CD70-knockout T cells that carry CD70-CAR-5B; also called CD70-CAR-5B) chimeric antigen receptor chain: QVQLVESGGGLVQAGGSLRLSCAASGFTFDDYAIGWFRQAPGKEPEGVSCFRSSDGNIYYSDSVRGRFTISSDNAKNTVYLQMNRLKPEDTAVYYCAAYSVLLRPWVLCEGSYDYWGQGTQVTVSSTTTPAPRPPTPAPTIASQPLSLRPEACRPAAGGAVHTRGLDFACDIYIWAPLAGTCGVLLLSLVITLYCKRGRKKLLYIFKQPFMRPVQTTQEEDGCSCRFPEEEEGGCELRVKFSRSADAPAYKQGQNQLYNELNLGRREEYDVLDKRRGRDPEMGGKPRRKNPQEGLYNELQKDKMAEAYSEIGMKGERRRGKGHDGLYQGLSTATKDTYDALHMQALPPR | 57.8
CD70KO-CAR-L1 (receptor, The sheet names the CD70-knockout T cells that carry CD70-CAR-L1; also called CD70-CAR-L1) chimeric antigen receptor chain: EVQVVESGGGLVQAGGSLRLSCAASGRTFSSYAMGWVRQAPGKDQEFVAAINWSDGSTYYADSVKGRFTIARDNAKNTAFLQMNSLKPEDTAVYYCAAGCCGVADAPLNALDAWGQGTLVTVSSTTTPAPRPPTPAPTIASQPLSLRPEACRPAAGGAVHTRGLDFACDIYIWAPLAGTCGVLLLSLVITLYCKRGRKKLLYIFKQPFMRPVQTTQEEDGCSCRFPEEEEGGCELRVKFSRSADAPAYKQGQNQLYNELNLGRREEYDVLDKRRGRDPEMGGKPRRKNPQEGLYNELQKDKMAEAYSEIGMKGERRRGKGHDGLYQGLSTATKDTYDALHMQALPPR | 82.5
CD70KO-CAR-5H (receptor, The sheet names the CD70-knockout T cells that carry CD70-CAR-5H; also called CD70-CAR-5H) chimeric antigen receptor chain: EVQLVESGGGMVQAGGSLRLSCAAPGKIFSFYFMGWYRQAPGKQRELVALITGDGRTNYADSVEGRFTISRDNAKNTVYLQMNSLKPEDTAVYYCYADVFARAGRDEYWGQGTQVSVSSTTTPAPRPPTPAPTIASQPLSLRPEACRPAAGGAVHTRGLDFACDIYIWAPLAGTCGVLLLSLVITLYCKRGRKKLLYIFKQPFMRPVQTTQEEDGCSCRFPEEEEGGCELRVKFSRSADAPAYKQGQNQLYNELNLGRREEYDVLDKRRGRDPEMGGKPRRKNPQEGLYNELQKDKMAEAYSEIGMKGERRRGKGHDGLYQGLSTATKDTYDALHMQALPPR | 58.9
